Results reported in patent US20190086422A1.

What was measured:
[1] = biological target: Tau protein from human CSF (human) (UniProt P10636); experiment: IP from human CSF, trypsin digest, MS; Tau peptide 6-23 (SEQ ID NO 69) quantified
[2] = biological target: Tau protein from human CSF (human) (UniProt P10636); experiment: IP from human CSF, trypsin digest, MS; Tau peptide 195-209 (SEQ ID NO 77) quantified
[3] = biological target: Tau protein from human CSF (human) (UniProt P10636); experiment: IP from human CSF, trypsin digest, MS; Tau peptide 181-190 (SEQ ID NO 76) quantified
[4] = biological target: Tau protein from human CSF (human) (UniProt P10636); experiment: IP from human CSF, trypsin digest, MS; Tau peptide 396-406 (SEQ ID NO 86) quantified
[5] = biological target: Tau protein from human CSF (human) (UniProt P10636); experiment: IP from human CSF, trypsin digest, MS; Tau peptide 88-126 (SEQ ID NO 73) quantified
[6] = biological target: Tau protein from human CSF (human) (UniProt P10636); experiment: IP from human CSF, trypsin digest, MS; Tau peptide 212-221 (SEQ ID NO 78) quantified
[7] = biological target: Tau protein from human CSF (human) (UniProt P10636); experiment: IP from human CSF, trypsin digest, MS; Tau peptide 68-87 (SEQ ID NO 72) quantified
[8] = biological target: Tau protein from human CSF (human) (UniProt P10636); experiment: IP from human CSF, trypsin digest, MS; Tau peptide 212-224 (SEQ ID NO 79) quantified
[9] = biological target: Tau protein from human CSF (human) (UniProt P10636); experiment: IP from human CSF, trypsin digest, MS; Tau peptide 151-155 (SEQ ID NO 74) quantified
[10] = biological target: Tau protein from human CSF (human) (UniProt P10636); experiment: IP from human CSF, trypsin digest, MS; Tau peptide 24-44 (SEQ ID NO 70) quantified
[11] = biological target: Tau protein from human CSF (human) (UniProt P10636); experiment: IP from human CSF, trypsin digest, MS; Tau peptide 275-280 (SEQ ID NO 81) quantified
[12] = biological target: Tau protein from human CSF (human) (UniProt P10636); experiment: IP from human CSF, trypsin digest, MS; Tau peptide 175-180 (SEQ ID NO 75) quantified
[13] = biological target: Tau protein from human CSF (human) (UniProt P10636); experiment: IP from human CSF, trypsin digest, MS; Tau peptide 45-67 (SEQ ID NO 71) quantified
[14] = biological target: Tau protein from human CSF (human) (UniProt P10636); experiment: IP from human CSF, trypsin digest, MS; Tau peptide 282-290 (SEQ ID NO 82) quantified
[15] = biological target: Tau protein from human CSF (human) (UniProt P10636); experiment: IP from human CSF, trypsin digest, MS; Tau peptide 386-395 (SEQ ID NO 85) quantified
[16] = biological target: Tau protein from human CSF (human) (UniProt P10636); experiment: IP from human CSF, trypsin digest, MS; Tau peptide 260-267 (SEQ ID NO 80) quantified
[17] = biological target: Tau protein from human CSF (human) (UniProt P10636); experiment: IP from human CSF, trypsin digest, MS; Tau peptide 299-316 as printed (SEQ ID NO 83) quantified
[18] = biological target: Tau protein from human CSF (human) (UniProt P10636); experiment: IP from human CSF, trypsin digest, MS; Tau peptide 354-369 (SEQ ID NO 84) quantified

Sequence of UniProt P10636 (P10636 other isoform, or with tags, fused parts or gaps limits assumed): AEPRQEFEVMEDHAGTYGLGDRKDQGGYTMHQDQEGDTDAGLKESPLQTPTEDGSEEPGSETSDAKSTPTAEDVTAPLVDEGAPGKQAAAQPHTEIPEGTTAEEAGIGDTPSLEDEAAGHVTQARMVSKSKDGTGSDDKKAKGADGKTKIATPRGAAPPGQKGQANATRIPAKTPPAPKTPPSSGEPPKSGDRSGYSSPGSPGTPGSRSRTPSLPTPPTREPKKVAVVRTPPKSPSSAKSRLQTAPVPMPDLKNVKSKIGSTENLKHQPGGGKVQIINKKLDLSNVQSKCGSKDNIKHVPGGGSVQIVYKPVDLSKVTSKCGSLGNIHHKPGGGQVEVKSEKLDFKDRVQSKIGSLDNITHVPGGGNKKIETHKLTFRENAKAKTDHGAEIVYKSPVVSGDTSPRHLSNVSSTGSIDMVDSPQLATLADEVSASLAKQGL

Peptide Intensity (fraction of the highest abundance among the three IP antibodies) [1]	Peptide Intensity (fraction of the highest abundance among the three IP antibodies) [2]	Peptide Intensity (fraction of the highest abundance among the three IP antibodies) [3]	Peptide Intensity (fraction of the highest abundance among the three IP antibodies) [4]	Peptide Intensity (fraction of the highest abundance among the three IP antibodies) [5]	Peptide Intensity (fraction of the highest abundance among the three IP antibodies) [6]	Peptide Intensity (fraction of the highest abundance among the three IP antibodies) [7]	Peptide Intensity (fraction of the highest abundance among the three IP antibodies) [8]	Peptide Intensity (fraction of the highest abundance among the three IP antibodies) [9]	Peptide Intensity (fraction of the highest abundance among the three IP antibodies) [10]	Peptide Intensity (fraction of the highest abundance among the three IP antibodies) [11]	Peptide Intensity (fraction of the highest abundance among the three IP antibodies) [12]	Peptide Intensity (fraction of the highest abundance among the three IP antibodies) [13]	Peptide Intensity (fraction of the highest abundance among the three IP antibodies) [14]	Peptide Intensity (fraction of the highest abundance among the three IP antibodies) [15]	Peptide Intensity (fraction of the highest abundance among the three IP antibodies) [16]	Peptide Intensity (fraction of the highest abundance among the three IP antibodies) [17]	Peptide Intensity (fraction of the highest abundance among the three IP antibodies) [18]	Substance
0.68	0.8	1	0.39	1	0.86	1	0.94	1	0.84	1	1	1	0.04	1	1	1	1	HJ8.7 (antibody)
1	1	0.46	0.42	0.59	1	0.47	1	0.87	0.15	0.31	0.99	0.92	1	0.68	0.86	0.82	0.86	Tau12 (antibody)
